# Positions count from the first letter of the chain named. Numbers in names are those of the source.
# B1: TPP-1016: CD137A-6GS-PDA2-6GS-HSA1-His (bispecific antibody)
# chain: EVQLVESGGGLVQPGGSLRLSCAASGFTLSNYWMNWVRQAPGKGLEWVANINQDGSERYYVDSVKGRFTISRDNAKNSLYLQMNSLRAEDTAVYYCARGGEGYGVDHYGLDVSGQGTTVTVSSGGGGSGGGGSGGGGSGGGGSGGGGSGGGGSEVQLVESGGGVVRPGGSLRLSCAASGFTFDDYAMSWVRQAPGKGLEWVSGITWNAGSTGYADSVKGRFTISRDNAKNSLYLQMNSLRAEDTALYYCVRDKYSYAWSYDDFDIWGQGTMVTVSSGGGGSGGGGSGGGGSGGGGSGGGGSGGGGSEVQLVESGGGLVQPGRSLRLSCAASGFTFHHYAMHWVRQAPGKGLEWVSGISWNGNKITYADSVKGRFTISRDNAKNSLYLQMNSLRAEDTALYYCVRDSSLFIVGAPTFEHWGRGTLVTVSSAAAHHHHHH
# B2: TPP-1017: CD137A-6GS-PD138G7(G109D)-6GS-HSA2-His (bispecific antibody)
# chain: EVQLVESGGGLVQPGGSLRLSCAASGFTLSNYWMNWVRQAPGKGLEWVANINQDGSERYYVDSVKGRFTISRDNAKNSLYLQMNSLRAEDTAVYYCARGGEGYGVDHYGLDVSGQGTTVTVSSGGGGSGGGGSGGGGSGGGGSGGGGSGGGGSEVQLVESGGGVVRPGGSLRLSCAASGFTFDDYAMSWVRQAPGKGLEWVSGITWNGGSTGYADSVKDRFTISRDNAKNSLYLQMNSLRAEDTALYYCVRDKYSYAWSYDDFDIWGQGTMVTVSSGGGGSGGGGSGGGGSGGGGSGGGGSGGGGSEVQLVESGGGLVKPGGSLRLSCAASGFTFSNYNMNWVRQAPGKGLEWVSSISSAGTHIYYADSVKGRFTISRDNAKNSLYLQMNSLRAEDTAVYYCARDPHSTGWYKDFDYWGQGTLVTVSSAAAHHHHHH
# B3: TPP-1014: CD137A-6GS-PDA-6GS-HSA-His (bispecific antibody)
# chain: EVQLVESGGGLVQPGGSLRLSCAASGFTLSNYWMNWVRQAPGKGLEWVANINQDGSERYYVDSVKGRFTISRDNAKNSLYLQMNSLRAEDTAVYYCARGGEGYGVDHYGLDVSGQGTTVTVSSGGGGSGGGGSGGGGSGGGGSGGGGSGGGGSEVQLVESGGGLVQPGRSLRLSCAASGFTFDDYALHWVRQAPGKDLEWVSGISWNGGSYGYADSVKGRFTISRDNAKNSLYLQMNSLRAEDTALYYCVREKGPGLTGSTADYYGLDAWGQGTMVTVSSGGGGSGGGGSGGGGSGGGGSGGGGSGGGGSEVQLVESGGGLVQPGRSLRLSCAASGFTFHHYAMHWVRQAPGKGLEWVSGISWNGNKITYADSVKGRFTISRDNAKNSLYLQMNSLRAEDTALYYCVRDSSLFIVGAPTFEHWGRGTLVTVSSAAAHHHHHH
# B4: TPP-1015: CD137A-6GS-PDA2-6GS-HSA3-His (bispecific antibody)
# chain: EVQLVESGGGLVQPGGSLRLSCAASGFTLSNYWMNWVRQAPGKGLEWVANINQDGSERYYVDSVKGRFTISRDNAKNSLYLQMNSLRAEDTAVYYCARGGEGYGVDHYGLDVSGQGTTVTVSSGGGGSGGGGSGGGGSGGGGSGGGGSGGGGSEVQLVESGGGVVRPGGSLRLSCAASGFTFDDYAMSWVRQAPGKGLEWVSGITWNAGSTGYADSVKGRFTISRDNAKNSLYLQMNSLRAEDTALYYCVRDKYSYAWSYDDFDIWGQGTMVTVSSGGGGSGGGGSGGGGSGGGGSGGGGSGGGGSEVQLLESGGGLVKPGGSLRLSCAASGFTVSSYTMNWVRQAPGKGLEWVSSISSSGRYIYYADSVKGRFTISRDNAKNSLYLQMNSLRAEDTAVYYCARDPRMVGNPHEFDIWGQGTMVTVSSAAAHHHHHH
# B5: TPP-1018: CD137A-6GS-PD138G7(G109D)-6GS-HSA3-His (bispecific antibody)
# chain: B4 chain with A208G, G219D
# Molecular target: human CD137 expressed on cells (Jurkat human CD137 NF-kB luciferase reporter cells; human CD8+ T cells) (human, UniProt Q07011 24-255)
# Assay: cell-based or functional assay
row,Jurkat-CD137/CHO-PD-1 Reporter Assay EC50 [nM],Binder
1,0.698,B1
2,0.21,B2
3,0.548,B3
4,0.507,B4
5,0.273,B5
